Data set [1] deals with the molecule itself. Briefly: cryo-EM structure.
Data set [2] deals with the molecule itself. Kind of data set: TIRF microscopy of assembled microtubules.

B1: mouse α-tubulin isotype α1C (natural protein)
chain: MRECISIHVGQAGVQIGNACWELYCLEHGIQPDGQMPSDKTIGGGDDSFNTFFSETGAGKHVPRAVFVDLEPTVIDEVRTGTYRQLFHPEQLITGKEDAANNYARGHYTIGKEIIDLVLDRIRKLADQCTGLQGFLVFHSFGGGTGSGFTSLLMERLSVDYGKKSKLEFSIYPAPQVSTAVVEPYNSILTTHTTLEHSDCAFMVDNEAIYDICRRNLDIERPTYTNLNRLISQIVSSITASLRFDGALNVDLTEFQTNLVPYPRIHFPLATYAPVISAEKAYHEQLTVAEITNACFEPANQMVKCDPRHGKYMACCLLYRGDVVPKDVNAAIATIKTKRTIQFVDWCPTGFKVGINYQPPTVVPGGDLAKVQRAVCMLSNTTAIAEAWARLDHKFDLMYAKRAFVHWYVGEGMEEGEFSEAREDMAALEKDYEEVGADSAEGDDEGEEY
Turning to B1, the binding result in data set [1] was “binds”.

B2: mouse α-tubulin isotype α4A (natural protein)
chain: MRECISVHVGQAGVQMGNACWELYCLEHGIQPDGQMPSDKTIGGGDDSFTTFFCETGAGKHVPRAVFVDLEPTVIDEIRNGPYRQLFHPEQLITGKEDAANNYARGHYTIGKEIIDPVLDRIRKLSDQCTGLQGFLVFHSFGGGTGSGFTSLLMERLSVDYGKKSKLEFSIYPAPQVSTAVVEPYNSILTTHTTLEHSDCAFMVDNEAIYDICRRNLDIERPTYTNLNRLISQIVSSITASLRFDGALNVDLTEFQTNLVPYPRIHFPLATYAPVISAEKAYHEQLSVAEITNACFEPANQMVKCDPRHGKYMACCLLYRGDVVPKDVNAAIAAIKTKRSIQFVDWCPTGFKVGINYQPPTVVPGGDLAKVQRAVCMLSNTTAIAEAWARLDHKFDLMYAKRAFVHWYVGEGMEEGEFSEAREDMAALEKDYEEVGIDSYEDEDEGEE
With B2, the binding result in data set [1] is reported as “binds”.

B3: recombinant mouse α4A/β2A tubulin heterodimer (complex)
chain 1: MRECISVHVGQAGVQMGNACWELYCLEHGIQPDGQMPSDKTIGGGDDSFTTFFCETGAGKHVPRAVFVDLEPTVIDEIRNGPYRQLFHPEQLITGKEDAANNYARGHYTIGKEIIDPVLDRIRKLSDQCTGLQGFLVFHSFGGGTGSGFTSLLMERLSVDYGKKSKLEFSIYPAPQVSTAVVEPYNSILTTHTTLEHSDCAFMVDNEAIYDICRRNLDIERPTYTNLNRLISQIVSSITASLRFDGALNVDLTEFQTNLVPYPRIHFPLATYAPVISAEKAYHEQLSVAEITNACFEPANQMVKCDPRHGKYMACCLLYRGDVVPKDVNAAIAAIKTKRSIQFVDWCPTGFKVGINYQPPTVVPGGDLAKVQRAVCMLSNTTAIAEAWARLDHKFDLMYAKRAFVHWYVGEGMEEGEFSEAREDMAALEKDYEEVGIDSYEDEDEGEE
chain 2: […]
Regarding B3, in data set [2], the binding result was “binds”.
